# B1: Poly [ADP-ribose] polymerase 1 (Mus musculus), P11103 (parent)
# chain: MAEASERLYRVQYAKSGRASCKKCSESIPKDSLRMAIMVQSPMFDGKVPHWYHFSCFWKVGQSIRHPDVEVDGFSELRWDDQQKVKKTAEAGGVAGKGQDGSGGKAEKTLGDFAAEYAKSNRSMCKGCLEKIEKGQMRLSKKMVDPEKPQLGMIDRWYHPTCFVKKRDELGFRPEYSASQLKGFSLLSAEDKEALKKQLPAIKNEGKRKGDEVDGTDEVAKKKSRKETDKYSKLEKALKAQNELIWNIKDELKKACSTNDLKELLIFNQQQVPSGESAILDRVADGMAFGALLPCKECSGQLVFKSDAYYCTGDVTAWTKCMVKTQNPSRKEWVTPKEFREISYLKKLKVKKQDRIFPPESSAPITVHWPLSVTSAPTAVNSSAPADKPLSNMKILTLGKLSQNKDEAKAVIEKLGGKLTGSANKASLCISIKKEVEKMNKKMEEVKEANIRVVSEDFLQDVSASTKSLQDLLSAHSLSPWGAEVKAEPGEVVAPRGKSAAPSKKSKGCFKEEGVNKSEKRMKLTLKGGAAVDPDSGLEHSAHVLEKGGKVFSATLGLVDIVKGTNSYYKLQLLEDDKESRYWIFRSWGRLGTVIGSNKLEQMPSKEEAVEQFMKLYEEKTGNAWHSKNFTKYPKKFYPLEIDYGQDEEAVKKLTVKPGTKSKLPKPVQELVGMIFDVDSMKKALVEYEIDLQKMPLGKLSRRQIQAAYSILSEVQQPVSQGSSESQILDLSNRFYTLIPHDFGMKKPPLLNNADSVQAKVEMLDNLLDIEVAYSLLRGGSDDSSKDPIDVNYEKLKTDIKVVDRDSEEAEVIRKYVKNTHATTHNAYDLEVIDIFKIEREGESQRYKPFRQLHNRRLLWHGSRTTNFAGILSQGLRIAPPEAPVTGYMFGKGIYFADMVSKSANYCHTSQGDPIGLIMLGEVALGNMYELKHASHISKLPKGKHSVKGLGKTTPDPSASITLEGVEVPLGTGIPSGVNDTALLYNEYIVYDIAQVNLKYLLKLKFNFKTSLW
# partner: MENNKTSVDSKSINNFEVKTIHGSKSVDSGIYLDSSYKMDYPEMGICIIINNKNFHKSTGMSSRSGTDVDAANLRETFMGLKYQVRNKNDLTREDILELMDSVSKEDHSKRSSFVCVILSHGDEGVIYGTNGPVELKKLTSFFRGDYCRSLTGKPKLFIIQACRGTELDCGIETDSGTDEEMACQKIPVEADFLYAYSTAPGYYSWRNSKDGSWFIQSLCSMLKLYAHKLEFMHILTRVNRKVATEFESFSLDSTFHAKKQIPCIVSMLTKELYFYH
# Variants of: B1
# Details: with casp3_mouse Casp3, P70677
row,Variant,effect of a mutation on the interaction
1,G210K,decreasing interaction

# Source: IntAct's records for PubMed 19759058
